From patent publication US7741051B2, “Soluble ectodomain fragments of MET and uses thereof” (Medical Research Council, priority 2003, dated 2010)

Experiments:
[1] = Binding of dimeric MET constructs to HiTrap Heparin HP column, NaCl gradient elution; conditions: 50 mM phosphate, 150 mM NaCl, pH 7.4, linear NaCl gradient
Procedure: (§1) Immulon B 96 well plates were coated with recombinant, single chain (R494E) or two chain HGF/SF in 50 mM phosphate buffer, pH 6.0. Wells were blocked, incubated with dimeric MET constructs at the concentrations shown in FIGS. 2a and b and bound MET was detected with HRP-conjugated rabbit anti-human IgG (Dako P0214). For heparin binding, dimeric MET constructs were loaded on a HiTrap Heparin HP column (Amersham Biosciences 17-0406-01) in 50 mM phosphate, 150 mM NaCl, pH 7.4 and eluted with a linear gradient of NaCl as shown in FIGS. 2c and d.

[2] = biological target: T1, recombinant single chain HGF/SF (R494E) (human, UniProt P14210 32-728); assay: solid phase assay, HGF/SF coated, bound MET detected with HRP anti-human IgG
T1 construct: also called single chain (R494E) HGF/SF
Procedure: as §1

[3] = biological target: T2, recombinant two chain HGF/SF (human, UniProt P14210 32-494; P14210 495-728); assay: as above
T2 construct: also called mature (two-chain) HGF/SF
Procedure: as §1

[4] = system: single chain (R494E) or two chain HGF/SF; assay: Solid phase binding of dimeric MET deletions to HGF/SF; conditions: plates coated with single chain (R494E) or two chain HGF/SF; bound MET detected with HRP anti-human IgG
Procedure: as §1

single chain (R494E) or two chain HGF/SF, sequence (P14210 32-493 limits assumed, stated change not applied): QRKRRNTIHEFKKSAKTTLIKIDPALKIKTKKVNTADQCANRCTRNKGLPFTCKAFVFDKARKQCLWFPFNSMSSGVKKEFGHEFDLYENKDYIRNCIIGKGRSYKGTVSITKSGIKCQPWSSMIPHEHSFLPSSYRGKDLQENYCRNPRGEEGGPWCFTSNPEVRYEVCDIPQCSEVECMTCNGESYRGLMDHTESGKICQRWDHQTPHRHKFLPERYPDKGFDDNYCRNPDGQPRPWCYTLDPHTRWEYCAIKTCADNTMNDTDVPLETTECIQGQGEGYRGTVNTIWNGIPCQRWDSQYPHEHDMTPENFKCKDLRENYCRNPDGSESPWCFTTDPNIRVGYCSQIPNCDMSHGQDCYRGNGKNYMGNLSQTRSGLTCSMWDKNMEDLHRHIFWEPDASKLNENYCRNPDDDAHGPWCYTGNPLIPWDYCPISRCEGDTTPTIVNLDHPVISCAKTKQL
T1 sequence (P14210 32-728 R494E limits assumed): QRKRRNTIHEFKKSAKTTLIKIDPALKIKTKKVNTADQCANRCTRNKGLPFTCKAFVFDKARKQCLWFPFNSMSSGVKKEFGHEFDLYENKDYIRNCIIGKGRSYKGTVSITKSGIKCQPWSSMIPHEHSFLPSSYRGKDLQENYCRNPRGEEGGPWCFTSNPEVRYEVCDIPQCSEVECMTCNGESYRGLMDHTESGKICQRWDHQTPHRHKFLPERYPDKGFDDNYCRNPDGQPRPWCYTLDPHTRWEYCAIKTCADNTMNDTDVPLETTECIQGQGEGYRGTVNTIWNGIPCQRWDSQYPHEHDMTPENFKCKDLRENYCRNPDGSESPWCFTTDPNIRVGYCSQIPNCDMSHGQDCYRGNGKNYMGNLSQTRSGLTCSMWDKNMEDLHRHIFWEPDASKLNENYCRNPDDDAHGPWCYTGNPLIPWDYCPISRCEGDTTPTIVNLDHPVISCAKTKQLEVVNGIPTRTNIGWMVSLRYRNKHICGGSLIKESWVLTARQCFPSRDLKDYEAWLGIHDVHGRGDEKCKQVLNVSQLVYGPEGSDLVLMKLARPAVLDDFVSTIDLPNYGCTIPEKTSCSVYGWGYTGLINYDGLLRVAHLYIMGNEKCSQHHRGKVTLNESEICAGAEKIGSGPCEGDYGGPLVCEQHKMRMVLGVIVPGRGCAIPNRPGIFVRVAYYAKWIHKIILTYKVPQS
T2 sequence (P14210 32-494 limits assumed, chain 1 of 2): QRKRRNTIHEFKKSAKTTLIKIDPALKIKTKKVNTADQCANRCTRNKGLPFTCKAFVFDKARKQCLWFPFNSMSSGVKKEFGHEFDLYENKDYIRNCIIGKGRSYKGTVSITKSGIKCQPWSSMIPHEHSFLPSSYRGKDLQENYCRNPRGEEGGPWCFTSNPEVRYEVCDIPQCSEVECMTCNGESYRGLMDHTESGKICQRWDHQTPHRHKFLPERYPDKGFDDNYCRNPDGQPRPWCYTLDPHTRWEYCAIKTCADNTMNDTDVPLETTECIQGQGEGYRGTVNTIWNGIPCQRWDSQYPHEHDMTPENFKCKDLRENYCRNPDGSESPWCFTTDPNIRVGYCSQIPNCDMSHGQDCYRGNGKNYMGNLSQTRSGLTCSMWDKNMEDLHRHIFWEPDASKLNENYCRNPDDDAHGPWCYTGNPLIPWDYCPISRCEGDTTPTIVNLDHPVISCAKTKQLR
T2 sequence (P14210 495-728 limits assumed, chain 2 of 2): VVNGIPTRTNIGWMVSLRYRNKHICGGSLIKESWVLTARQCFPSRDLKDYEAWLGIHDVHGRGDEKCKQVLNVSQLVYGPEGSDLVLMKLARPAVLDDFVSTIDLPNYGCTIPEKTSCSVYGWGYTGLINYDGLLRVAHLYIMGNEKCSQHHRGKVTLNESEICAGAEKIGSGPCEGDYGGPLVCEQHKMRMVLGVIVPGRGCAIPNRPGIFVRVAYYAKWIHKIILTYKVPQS

Row | Molecule | Binding to immobilised heparin [1] | Binding to HGF/SF [4] | other results
1 | HGF/SF: hepatocyte growth factor/scatter factor, ligand of MET | strong heparin binding |  | 
2 | MET 567-932GH (Fc fusion, IG leader left out; Dimer through the Fc; also called MET567-928GH; not shown: hinge, CH2 and CH3 domains of the human gamma1 antibody constant region) chain (part 1 of 2): KVFPNSAPLEGGTRLTICGWDFGFRRNNKFDLKKTRVLLGNESCTLTLSESTMNTLKCTVGPAMNKHFNMSIIISNGHGTTQYSTFSYVDPVITSISPKYGPMAGGTLLTLTGNYLNSGNSRHISIGGKTCTLKSVSNSILECYTPAQTISTEFAVKLKIDLANRETSIFSYREDPIVYEIHPTKSFISGGSTITGVGKNLNSVSVPRMVINVHEAGRNFTVACQHRSNSEIICCTTPSLQQLNLQLPLKTKAFFMLDGILSKYFDLIYVHNPVFKPFEKPVMISMGNENVLEIKGNDIDPEAVKGEVLKVGNKSCENIHLHSEAVLCTVPNDLLKLNSELNIEWKQAISSTVLGKVIVQPDQNFT chain (part 2 of 2): HHHHHH |  |  | binding result [2]: no binding; binding result [3]: no binding
3 | MET567-928GH: dimeric C-terminal part of the MET ectodomain fused to human γ1 Fc, hexa-histidine tagged (protein, left off: a dimerising Fc or GST) chain (part 1 of 2): KVFPNSAPLEGGTRLTICGWDFGFRRNNKFDLKKTRVLLGNESCTLTLSESTMNTLKCTVGPAMNKHFNMSIIISNGHGTTQYSTFSYVDPVITSISPKYGPMAGGTLLTLTGNYLNSGNSRHISIGGKTCTLKSVSNSILECYTPAQTISTEFAVKLKIDLANRETSIFSYREDPIVYEIHPTKSFISGGSTITGVGKNLNSVSVPRMVINVHEAGRNFTVACQHRSNSEIICCTTPSLQQLNLQLPLKTKAFFMLDGILSKYFDLIYVHNPVFKPFEKPVMISMGNENVLEIKGNDIDPEAVKGEVLKVGNKSCENIHLHSEAVLCTVPNDLLKLNSELNIEWKQAISSTVLGKVIVQPDQNFT chain (part 2 of 2): HHHHHH | no binding | no binding | Binding to immobilised heparin ([1]; listed as MET 567-928GH): none
4 | 25-519GH: dimeric MET aa 25-519 fused to human γ1 Fc, hexa-histidine tagged (protein, left off: a dimerising Fc or GST) ECKEALAKSEMNVNMKYQLPNFTAETPIQNVILHEHHIFLGATNYIYVLNEEDLQKVAEYKTGPVLEHPDCFPCQDCSSKANLSGGVWKDNINMALVVDTYYDDQLISCGSVNRGTCQRHVFPHNHTADIQSEVHCIFSPQIEEPSQCPDCVVSALGAKVLSSVKDRFINFFVGNTINSSYFPDHPLHSISVRRLKETKDGFMFLTDQSYIDVLPEFRDSYPIKYVHAFESNNFIYFLTVQRETLDAQTFHTRIIRFCSINSGLHSYMEMPLECILTEKRKKR chain (part 1 of 2): STKKEVFNILQAAYVSKPGAQLARQIGASLNDDILFGVFAQSKPDSAEPMDRSAMCAFPIKYVNDFFNKIVNKNNVRCLQHFYGPNHEHCFNRTLLRNSSGCEARRDEYRTEFTTALQRVDLFMGQFSEVLLTSISTFIKGDLTIANLGTSEGRFMQVVVSRSGPSTPHVNFLLDSHPVSPEVIVEHTLNQNGYTLVITGKKITKIPLNGLG chain (part 2 of 2): HHHHHH | indistinguishable from full length MET | readily measurable | Binding to immobilised heparin ([1]; listed as MET 25-519GH): showed binding
5 | 25-567GH: dimeric MET aa 25-567 fused to human γ1 Fc, hexa-histidine tagged (protein, left off: a dimerising Fc or GST) ECKEALAKSEMNVNMKYQLPNFTAETPIQNVILHEHHIFLGATNYIYVLNEEDLQKVAEYKTGPVLEHPDCFPCQDCSSKANLSGGVWKDNINMALVVDTYYDDQLISCGSVNRGTCQRHVFPHNHTADIQSEVHCIFSPQIEEPSQCPDCVVSALGAKVLSSVKDRFINFFVGNTINSSYFPDHPLHSISVRRLKETKDGFMFLTDQSYIDVLPEFRDSYPIKYVHAFESNNFIYFLTVQRETLDAQTFHTRIIRFCSINSGLHSYMEMPLECILTEKRKKR chain (part 1 of 2): STKKEVFNILQAAYVSKPGAQLARQIGASLNDDILFGVFAQSKPDSAEPMDRSAMCAFPIKYVNDFFNKIVNKNNVRCLQHFYGPNHEHCFNRTLLRNSSGCEARRDEYRTEFTTALQRVDLFMGQFSEVLLTSISTFIKGDLTIANLGTSEGRFMQVVVSRSGPSTPHVNFLLDSHPVSPEVIVEHTLNQNGYTLVITGKKITKIPLNGLGCRHFQSCSQCLSAPPFVQCGWCHDKCVRSEECLSGTWTQQICLPAIYK chain (part 2 of 2): HHHHHH |  | readily measurable | 
